Assays:
[1] = biological target: human DR5 (death receptor 5) (human) (UniProt O14763); assay: cell-based or functional assay
human Fas (human) = human Fas (human) (UniProt P25445); assay: cell-based or functional assay
human Fas (human), sequence (P25445 26-335): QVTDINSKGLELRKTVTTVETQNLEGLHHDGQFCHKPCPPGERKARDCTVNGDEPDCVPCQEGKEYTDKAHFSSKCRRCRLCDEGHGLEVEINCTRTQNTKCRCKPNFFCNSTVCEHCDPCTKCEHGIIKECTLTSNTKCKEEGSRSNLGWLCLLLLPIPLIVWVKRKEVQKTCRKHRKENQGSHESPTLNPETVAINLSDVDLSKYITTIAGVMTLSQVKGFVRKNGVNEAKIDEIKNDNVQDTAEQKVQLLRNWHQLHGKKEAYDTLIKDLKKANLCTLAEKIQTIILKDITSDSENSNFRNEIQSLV

Mouse Anti-hDR5 Antibody (MAB631)
EC50 (50% cell viability), Jurkat cells, immunoliposome of Example 36 [1]: 0.069 ng/mL
EC50 (50% cell viability), Jurkat cells, immunoliposome of Example 37 [1]: 0.089 ng/mL
EC50 (50% cell viability), Jurkat cells, secondary antibody-cross-linked MAB631 [1]: 13.4 ng/mL
EC50 Ab/IL, Jurkat cells, cross-linked MAB631 vs immunoliposome of Example 36 [1]: 194
EC50 Ab/IL, Jurkat cells, cross-linked MAB631 vs immunoliposome of Example 37 [1]: 150
cell viability at 0.1 ng/ml, Jurkat cells, immunoliposome of Example 36 (% cell viability) [1]: < 50
cell viability at 0.1 ng/ml, Jurkat cells, immunoliposome of Example 37 (% cell viability) [1]: < 50
cell viability at 10 or 1000 ng/ml, Jurkat cells, immunoliposome of Example 36 (% cell viability) [1]: < 5
cell viability at 10 or 1000 ng/ml, Jurkat cells, immunoliposome of Example 37 (% cell viability) [1]: < 5

Mouse Anti-hDR5 Antibody (MAB6311)
EC50 (50% cell viability), Jurkat cells, immunoliposome of Example 38 [1]: 0.075 ng/mL
EC50 (50% cell viability), Jurkat cells, immunoliposome of Example 39 [1]: 0.083 ng/mL
EC50 (50% cell viability), Jurkat cells, secondary antibody-cross-linked MAB6311 [1]: 2.39 ng/mL
EC50 Ab/IL, Jurkat cells, cross-linked MAB6311 vs immunoliposome of Example 38 [1]: 31.9
EC50 Ab/IL, Jurkat cells, cross-linked MAB6311 vs immunoliposome of Example 39 [1]: 28.8
cell viability at 0.1 ng/ml, Jurkat cells, immunoliposome of Example 38 (% cell viability) [1]: < 40
cell viability at 0.1 ng/ml, Jurkat cells, immunoliposome of Example 39 (% cell viability) [1]: < 40
cell viability at 10 or 1000 ng/ml, Jurkat cells, immunoliposome of Example 38 (% cell viability) [1]: < 5
cell viability at 10 or 1000 ng/ml, Jurkat cells, immunoliposome of Example 39 (% cell viability) [1]: < 5

Mouse Anti-hFas Antibody (DX2)
cell viability at 500 or 5000 ng/ml, WR19L12a cells, immunoliposome of Example 40 (% cell viability) (human Fas (human)): < 20

— patent US20100209490A1
